Test results reported in US20200353049A1.
“And” between values parts separate entries of the source, which are not always exact repeats. Equal entries are not always repeated.

Key:
[1] = molecular target: IL-22R1a extracellular domain (ECD) (UniProt Q8N6P7); assay: binding ELISA on plate-coated IL-22R1a ECD, relative to Reference Standard (100%); stored 5 C, 3 months
[2] = molecular target: IL-22R1a extracellular domain (ECD) (UniProt Q8N6P7); assay: potency assay (binding ELISA on plate-coated IL-22R1a ECD), relative to reference standard; 40 C stress, day 14
[3] = molecular target: IL-22R1a extracellular domain (ECD) (UniProt Q8N6P7); assay: binding ELISA on plate-coated IL-22R1a ECD, relative to Reference Standard; pH 7.0 formulation stored 4 weeks at 30 C
[4] = molecular target: IL-22R1a extracellular domain (ECD) (UniProt Q8N6P7); assay: potency assay (binding ELISA on plate-coated IL-22R1a ECD), relative to reference standard (100%); stored 25 C, 3 months
[5] = molecular target: IL-22R1a extracellular domain (ECD) (UniProt Q8N6P7); assay: potency assay (binding ELISA on plate-coated IL-22R1a ECD), relative to reference standard (100%); stored 5 C, 42 months
[6] = molecular target: IL-22R1a extracellular domain (ECD) (UniProt Q8N6P7); assay: potency assay (binding ELISA on plate-coated IL-22R1a ECD), relative to reference standard (100%); stored 5 C, 48 months

Sequence of UniProt Q8N6P7 (Q8N6P7 16-228 limits assumed): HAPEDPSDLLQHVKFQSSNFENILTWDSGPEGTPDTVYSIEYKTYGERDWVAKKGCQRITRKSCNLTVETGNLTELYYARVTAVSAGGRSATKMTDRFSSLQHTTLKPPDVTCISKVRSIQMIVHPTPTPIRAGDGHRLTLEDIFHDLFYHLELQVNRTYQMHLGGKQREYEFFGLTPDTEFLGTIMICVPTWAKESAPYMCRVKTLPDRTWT

Potency by Binding Assay (% relative potency) (% relative potency) [1]: 105
Potency (% relative potency) (% relative potency) [2]: 71 and 57
Estimated % relative potency (n = 2) (% relative potency) [3]: 79
Potency (% relative potency) (% relative potency) [4]: 57
Potency (% relative potency) (% relative potency) [5]: 87
Potency (% relative potency) (% relative potency) [6]: 91
Substance: IL-22 Fc fusion protein
